Reference: the supplement of paper PMC12042874
± gives the uncertainty stated by the source.

Assay: amyloid nucleation score (Sup35N fusion, yeast selection) (log enrichment); library NNK1; higher = more nucleation; inactive = no reads after selection
How it was run: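 The nucleation score is the DiMSum log enrichment of output over input reads, centred on the mode score of non-aggregating sequences. Only sequences with 100 or more input reads were scored, using Illumina sequencing of input and output plasmid inserts. Psi-negative yeast expressing Sup35N fused to peptides of 20 random codons were induced 24 hours with 100 μM copper sulfate and grown 7 days at 30°C on medium lacking adenine and uracil.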

In order of rising amyloid nucleation score:
1. VFNARVSYSFNSMCWVRKKQ  -2.08 ± 2.7
2. PVDNYFIMTTHDKLNRPGHD  -1.85 ± 1
3. GLKNFWM  -1.55 ± 1.9
4. CNVEAG  -1.55 ± 1.1
5. WEWIQDVWVPHISDPLSWAI  -1.2 ± 0.83
6. TYYSGDSAYLPIDAIMLVWY  -1.07 ± 0.65
7. MAEINYWTFSLVLELSARCV  -1.07 ± 1.2
8. IGAGL  -1.07 ± 2.4
9. VLNFEGMSRAVFLRLISIQQ  -0.837 ± 0.9
10. YVASLYQYFYLLIKIDCVFF  -0.824 ± 0.97
11. PLRNRNCVPYPHDCLSTSLI  -0.816 ± 1.3
12. NTALMWVMMIVIWSVVSFTS  -0.8 ± 1.4
13. KWVDEECFDFMKGGF  -0.756 ± 0.73
14. PGCESARRLKLRVSLKLRGK  -0.731 ± 1.1
15. LSWVMRYLPYVVFLSYDQPG  -0.723 ± 0.62
16. LYVYTYYVMVLVGQKR  -0.698 ± 0.93
17. YVFNFLIMLLLGVA  -0.665 ± 0.32
18. SQPSMPNSVGGDTFG  -0.658 ± 0.49
19. SRIIGMSRCCIGHRYMYMKT  -0.598 ± 1.4
20. ISGRVGAWSPIVYWPLRRGG  -0.573 ± 0.61
21. VCVLSGRK  -0.416 ± 0.38
22. KIMLSRMYNQYMGCQVKFW  -0.409 ± 0.51
23. VRVQTRHLGDGLPHGQDKCY  -0.403 ± 0.52
24. RTGYPGSEVMGTRSFLSRNS  -0.385 ± 1.9
25. LLCLCESRVARYTWACHSWY  -0.366 ± 0.3
26. GFMERLASIYTFFWGVDSK  -0.339 ± 1.2
27. VDFLSTNFWSLSVPVAFLGV  -0.31 ± 0.54
28. IPLAGLFYSFWISLHTRSNT  -0.308 ± 0.52
29. GFEWVRVYWWGSYVGKRMGT  -0.219 ± 0.91
30. YKGRTPSSRLASLVCRGG  -0.198 ± 0.64
31. ILSGVFLIRIEAKSNK  -0.179 ± 1.2
32. MQIMRRIMWYDNSKVSF  -0.177 ± 0.2
33. RKDLEIWYRMRLGEMPLRWM  -0.165 ± 0.33
34. CFSKLEISFDESFR  -0.154 ± 0.28
35. NHTGYTWMNVR  -0.099 ± 0.26
36. NFNFFRRCLGSPYNRPEWID  -0.066 ± 0.42
37. GSPLWLVVPVPGEHVSSLSL  -0.047 ± 0.36
38. SWLDLNLIDHQAFAFSSFGL  -0.043 ± 0.45
39. MGRRRAPRGGFILRYGCPCR  -0.039 ± 0.73
40. VFYACSTPRPSQNASVDFRL  -0.035 ± 0.61
41. GCGGTGAFTVQGKRQFIAGR  -0.031 ± 0.27
42. ECTCSIK  0.03 ± 0.22
43. HYACRRSVERSKRRGVRGSM  0.039 ± 0.46
44. FPWTNLSDD  0.04 ± 0.36
45. LGVRINGTNVLDFF  0.044 ± 0.27
46. VVISMTTMKVFMLVYTMDFM  0.046 ± 0.21
47. GSIPDCGIGICRYKLSGIMK  0.047 ± 0.63
48. KMLVGHS  0.087 ± 0.83
49. LGRLAVDHLVCRRYDSSLHN  0.089 ± 1.1
50. LSTTKAIALSYLYGQNVKWS  0.092 ± 0.21
51. KLTQKCHKCLH  0.107 ± 0.68
52. GSSFI  0.127 ± 0.57
53. HIRLAQ  0.157 ± 0.76
54. NDTNI  0.175 ± 1.1
55. CTWWSMWNNNWDKFLTREQL  0.19 ± 1.1
56. MFVSDQINYCMSTVAVH  0.201 ± 0.27
57. AYRNKETMCSLRTCRMVCSR  0.206 ± 0.34
58. NCLDGGMFRYIKVYRSRYSS  0.209 ± 0.2
59. CSYCVAENQFMEFRGFMRGP  0.234 ± 0.34
60. YIWQGTRFQRGNRIYIGSQG  0.271 ± 0.54
61. RVTYETNGLWGKNVRYDIVN  0.305 ± 0.34
62. LNRRLGDVEPIYAGLTSQQS  0.313 ± 0.3
63. RNLIGLV  0.318 ± 0.68
64. TKALLQEVPIT  0.345 ± 1.2
65. LRAPGTMVDRRCRGVWK  0.356 ± 0.85
66. VLTWFDCYLICLYTRTSLRI  0.365 ± 0.41
67. YLDWTVSALNWAMRMGSTVR  0.381 ± 0.31
68. KKMIFTVVVECSKLWPLRVV  0.399 ± 0.69
69. ILNYVRPCS  0.416 ± 0.56
70. FSVGYDNGMDNM  0.426 ± 0.29
71. SHTCYRIVTAPDTLLVSLGV  0.438 ± 0.36
72. GAFCWRLVGEGLFVALDVCE  0.458 ± 0.87
73. IEEPIYDSKHLPKMRSTGYT  0.486 ± 0.35
74. NGYFGAEDFLIVWIALRKKW  0.5 ± 0.9
75. MFQPFPFIHQVDQPFPKSVQ  0.51 ± 0.47
76. FIGVLIRSVCQSGARIV  0.514 ± 0.17
77. RILWSLYGGSLFPYVSVGWR  0.552 ± 0.56
78. FMDDSSLFPSI  0.569 ± 0.58
79. CLVIRFILHLSCK  0.587 ± 0.54
80. FCLVMEFM  0.606 ± 0.4
81. PFTHHHKCLVHRLLCRLQHE  0.616 ± 0.79
82. SANRA  0.62 ± 0.41
83. WWRIIGTEAQNMGG  0.631 ± 0.55
84. IEIIIASSGHHHYIKRDNVY  0.652 ± 0.58
85. IGAHFQSNLVIKVNSLEN  0.697 ± 0.63
86. CACVIRIFNLMVMWDILYWS  0.748 ± 1.2
87. KLYGLVFFLVYGNDGSKRDL  0.779 ± 0.36
88. TVANT  0.888 ± 1.1
89. YCTGSRVVPDGSLVYATCNM  0.895 ± 0.65
90. KLFDYAVYLC  0.936 ± 0.5
91. CNDHNNEYVNVSHTRRARL  0.99 ± 0.24
92. ALLSSYLWK  0.996 ± 0.45
93. QNGRASVYFTGLAILYILID  1.02 ± 0.25
94. RLYKFTGF  1.09 ± 0.37
95. NKLEYPHNNACATCC  1.09 ± 0.84
96. LPNSMLSSGLGWSSINFF  1.16 ± 0.7
97. ALNSQSGFKFERSMYLLVIG  1.17 ± 0.43
98. WSGIVFRIEGVAYVVHVNDA  1.17 ± 0.18
99. AVDMTWYIVVSMLHMLDASV  1.26 ± 0.76
100. ARRLFAAMLLRDWVPLTSQM  1.27 ± 0.66
101. SLSLDSNEKRKRICFW  1.36 ± 0.29
102. SCFLC  1.4 ± 0.18
103. QDWHDYLYGKFIGNNYGKYI  1.44 ± 0.47
104. MYGLVLCIYVSHVVR  1.54 ± 0.43
105. VLAVLVFSGCGGVRGTSNLT  1.54 ± 0.14
106. YTASMTIFLDLLP  2.07 ± 0.15
107. RFETIDANKVILSVKCRWAK  2.56 ± 0.17
108. SNVFYVYRVVKSCIIFDSVL  2.6 ± 0.076
109. NLEAIRQMQEKIMRRTWLLY  3.03 ± 0.13
110. NACIPQVFCGSLLKFALQLW  3.28 ± 0.088
111. SWIANRRRFAL  3.64 ± 0.15
112. QYMKLGFNPCKTMVVLFLCC  4.16 ± 0.062
113. ASDMSCMQSNSYFNLCTYTM  5.28 ± 0.064
114. GLRYSVYNCFLVCRGRREWP  5.54 ± 0.057
115. VNVNNLRRTYNIRWVVGPGL  5.57 ± 0.064
116. AFVVYMNFFHCLESNIVEWH  5.61 ± 0.073
117. VCLSSLIRMCKYSFPDGTGH  6.813 ± 0.051
118. AFYNCYSGNYFNYIFIYRCT  7.283 ± 0.053
119. HFSFLSVDKRHWAFGPLCRK  7.358 ± 0.073

With LKGRYDIKNY the amyloid nucleation score was “inactive”.
In the case of INAFYVVLIIRYVPSSKLLI, the amyloid nucleation score is reported as “inactive”.
For WHSISYF, the amyloid nucleation score was “inactive”.
In the case of IILFNRILLV, the amyloid nucleation score is reported as “inactive”.
In the case of LSMKSHFWKMMFTGNWSYVC, the amyloid nucleation score is reported as “inactive”.
For WRAYFACYNILESAFLLVQL, the amyloid nucleation score was “inactive”.
With SASDVWCLQMLRSVYFPPQG the amyloid nucleation score was “inactive”.
For LAGGVHLRPHERKEFLD, the amyloid nucleation score was “inactive”.
